Data: patent publication US20080090770A1, “Modulation of Muc1 Mediated Signal Transduction” (priority 2003, published 2008)
Values belong to the molecule of their own block, whether it stands above or below them.

Tests used:
[1] = system: HCT116/MUC1 cells; test: Apoptosis assay (sub-G1 DNA content) after siRNA transfection and CDDP treatment; format: cell-based, human; settings: CDDP 100 μM
Protocol: (§1) Cell culture and transfection: Human colon cancer HCT116 cells and human non-small lung cancer A549 were grown in Dulbecco's modified Eagle's medium (DMEM) and RPMI1640 medium, respectively, in a humidified 5% CO2 atmosphere at 37° C. Media were supplemented with 10% fetal bovine serum (FBS), 100 units/ml of penicillin and 100 μg/ml of streptomycin. HCT116 cells were transfected with pIRES-puro2 or pIRES-puro2-MUC1 as described (Li et al., 2001(a)) and stable transfectants were selected in the presence of 0.4 μg/ml puromycin (Caliochem-Novabiochem).
(§2) A nonspecific scrambled control siRNA (SCRsiRNA) was also synthesized (targeted sequence: 5′-[…]-3′) (Dharmacon, Inc.). Cells were plated, grown in antibiotic-free medium overnight, and then transiently transfected with siRNAs (0.2-20 nM) using Oligofectamine reagent (Invitrogen Life Technology, Inc.) and Opti-MEM 1 reduced serum medium (Invitrogen Life Technology, Inc.) according to the manufacturer's instructions.
(§3) Apoptosis assay: At 48 hr after siRNA transfection, cells were treated with 0, 10 or 100 μM cisplatin (CDDP, Sigma) for 24 hr to induce apoptosis. Apoptotic cells were quantified by analysis of sub-G1 DNA content. Cells were harvested, washed, with PBS, fixed with 75% ethanol, and incubated in PBS containing 200 μg/ml RNase A (Qiagen) for 15 min at 37° C. […] DNA content was analyzed by flow cytometry (EPICS XL-MCL, Coulter Corp.).

[2] = system: HCT116/vector cells; test: as above; format: cell-based, human; settings: CDDP 100 μM
Protocol: as §1, §2, §3

[3] = system: HCT116 cells transfected with MUC1ΔSANL; test: Visualization of viable cells after cisplatin in transfected HCT116 cells; format: cell-based, human; settings: 100 μM cisplatin, 24 and 48 hr
Protocol: Human HCT116 colon carcinoma cells (ATCC, Manassas, Va.) were cultured in Dulbecco's modified Eagle's medium/F12 with 10% heat-inactivated fetal bovine serum, 100 units/ml penicillin, […] streptomycin and 2 mM L-glutamine. HCT116 cells were transfected with pIRES-puro2, pIRESpuro2-MUC1 or pIRES-puro2-MUC1ΔSANL (MUC1 with the four carboxyl terminal amino acids […] deleted) as described (Li et al., 2001). Stable transfectants were selected in the presence of 0.4 mg/ml puromycin (Calbiochem-Novabiochem, San Diego, Calif.).
Cells were incubated with 100 μM cisplatin (CDDP; Sigma), for 24 and 48 hr.

[4] = target: T1, Mint-2 d1 (Homo sapiens, UniProt Q99767); test: TransSignal PDZ Domain Array: binding of His-tagged MUC1/CD to immobilized PDZ domain, without or with 7-mer peptide
T1 construct: Mint-2 d1(XIIL protein, PDZ domain #1); purchased Panomics Inc
T1 sequence (Q99767 568-654 limits assumed): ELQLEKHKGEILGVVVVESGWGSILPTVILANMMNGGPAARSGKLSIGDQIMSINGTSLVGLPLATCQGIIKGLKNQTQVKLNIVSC
Protocol: (§4) The ability of the MUC1 cytoplasmic domain (CD) to interact with a panel of 28 human PDZ domain proteins was screened. A His-tagged MUC1/CD was produced to affect the screening. The CD of MUC1 was amplified by RT-PCR from cDNA derived from human breast cancer MCF7 cells. The MUC1/CD gene was cloned into a bacterial vector pEXP (Panomics Inc.) to generate a His-tagged fusion protein (pEXP/MUC1/CD). DH5α E. Coli cells were transformed with pEXP/MUC1/CD and incubated overnight in 1 ml of LB medium containing 100 μg/ml ampicillin (LB/AMP). Eighty μl of the overnight culture was transferred to a tube of 4 ml of LB/AMP and allowed to grow until an OD600 of approximately 0.5-0.8 was evident. IPTG was added to the culture at a final concentration of 0.5 mM to induce expression of the His-tagged MUC1/CD protein. After 4 hours, cells were harvested in 1× resuspension buffer (Panomics Inc.) and lysed by sonication. The lysate was centrifuged at 14000 rpm for 5 minutes at 4° C. The resulting supernatant (bacterial extract) was collected and stored at −80° C. until use.
(§5) The TransSignal PDZ Domain Array kit (Panomics Inc.) was used comprising membranes on which the following 28 human PDZ proteins had been immobilized: MINT-2 d1, Mint-3 d1, Mint-3 d2, Mint-1 d1, Mint1 d2, CSKP, Dlg d1, Dlg1 d3, Dlg2 d2, Dlg4 d3, DVL1, DVL3, DVLL, GIPC, HtrA2, LIMK2, MPP2, NEB1, OMP25, hCLIM1, PTPH1, ZO-2 d1, hPTP1E d1, hPTP1E d5, RGS12, RIL, ZO-1 d3 and ZO-2 d3.
(§6) Membranes were submerged in a small tray with 20 ml of x1 blocking buffer (Panomics Inc.), and shaken at room temperature for 1 hour. The blocking buffer was removed and membranes rinsed twice with x1 Wash Buffer (Panomics inc.) at room temperature. The bacterial extract was diluted to a final concentration of 0.1 mg/ml in 20 ml Resuspension Buffer (Panomics Inc.). The membrane was incubated with the dilute bacterial extract overnight at 4° C. with gentle shaking. After incubation, the membrane was washed three times with 40 ml 1× Wash Buffer at room temperature for 10 minutes each wash. The membrane was then incubated with 20 ml diluted Anti-Histidine HRP Conjugate (Panomics inc., 1:3000 dilution in 1× Wash Buffer) at room temperature for 1 hour. The membrane was then washed with 40 ml 1× Wash Buffer at room temperature for 10 minutes each wash. The membrane was then visualized using […] ECL (Amersham Biosciences) utilizing the Detection Buffers as supplied by Panomics.
(§7) His-tagged MUC1/CD (bacterial extract) was incubated in the absence or presence of a 20-fold molar excess of the 7-mer peptide AAASANL (SEQ ID NO: 133) with the appropriate membrane-immobilized PDZ domain, as described above in Example 4.

[5] = target: T2, PTPH1 (Homo sapiens, UniProt P26045); test: as above
T2 construct: purchased Panomics Inc
T2 sequence (P26045 510-582 limits assumed): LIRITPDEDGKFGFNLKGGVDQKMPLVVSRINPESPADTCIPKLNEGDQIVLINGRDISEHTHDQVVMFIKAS
Protocol: as §4, §5, §6, §7

[6] = target: T3, Mint-1 d2 (Homo sapiens, UniProt Q02410); test: as above
T3 construct: Mint-1 d2 (XII protein, PDZ domain #2); purchased Panomics Inc
T3 sequence (Q02410 747-822 limits assumed): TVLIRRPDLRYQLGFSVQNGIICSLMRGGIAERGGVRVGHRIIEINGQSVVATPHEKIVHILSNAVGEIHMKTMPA
Protocol: as §4, §5, §6, §7

[7] = target: T4, HtrA2 (Homo sapiens, UniProt O43464); test: as above
T4 construct: purchased Panomics Inc
T4 sequence (O43464 364-445 limits assumed): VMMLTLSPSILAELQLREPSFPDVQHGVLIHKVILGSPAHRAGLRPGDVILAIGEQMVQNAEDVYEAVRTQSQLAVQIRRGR
Protocol: as §4, §5, §6, §7

[8] = target: T5, RIL (Homo sapiens, UniProt P50479); test: as above
T5 construct: purchased Panomics Inc
T5 sequence (P50479 1-84 limits assumed): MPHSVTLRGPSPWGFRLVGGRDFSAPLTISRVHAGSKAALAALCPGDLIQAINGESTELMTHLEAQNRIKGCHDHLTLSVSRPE
Protocol: as §4, §5, §6, §7

[9] = target: T6, OMP25 (Homo sapiens, UniProt P57105); test: TransSignal PDZ Domain Array: binding of His-tagged MUC1/CD to immobilized PDZ domain; settings: bacterial extract 0.1 mg/ml, panel of 28 PDZ proteins
T6 construct: The TransSignal PDZ Domain Array kit (Panomics Inc.) was used; purchased Panomics Inc
T6 sequence (P57105 13-100 limits assumed): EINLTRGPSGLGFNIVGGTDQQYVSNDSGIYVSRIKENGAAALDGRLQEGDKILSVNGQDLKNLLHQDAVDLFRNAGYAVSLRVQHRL
Protocol: as §4, with “use. […]” for “use.”

[10] = bacterial extract 0.1 mg/ml, panel of 28 PDZ proteins

Molecule: [NH2][Pt]([NH2])([Cl])[Cl] [CDDP, cisplatin]
- Sensitivity of cells to apoptosis induced by CDDP [1]: relatively resistant to apoptosis
- Sensitivity of cells to apoptosis induced by CDDP [2]: sensitive to apoptosis
- Sensitivity to CDDP-induced cell death relative to cells transfected with full length MUC1 [3]: substantially increase in the sensitivity to CDDP-induced cell death

- Inhibition of binding of his-tagged MUC1/CD to PDZ domain ([4]; 20-fold molar excess of 7-mer): inhibited the binding
- Inhibition of binding of his-tagged MUC1/CD to PDZ domain ([5]; 20-fold molar excess of 7-mer): inhibited the binding
- Inhibition of binding of his-tagged MUC1/CD to PDZ domain ([6]; 20-fold molar excess of 7-mer): inhibited the binding
- Inhibition of binding of his-tagged MUC1/CD to PDZ domain ([7]; 20-fold molar excess of 7-mer): inhibited the binding
- Inhibition of binding of his-tagged MUC1/CD to PDZ domain ([8]; 20-fold molar excess of 7-mer): inhibited the binding
Molecule: AAASANL [7-mer peptide]

- Binding of his-tagged MUC1/CD to PDZ domain [9]: Binding was observed
- Binding of his-tagged MUC1/CD to PDZ domain [4, 10]: Binding was observed
- Binding of his-tagged MUC1/CD to PDZ domain [5, 10]: Binding was observed
- Binding of his-tagged MUC1/CD to PDZ domain [6, 10]: Binding was observed
- Binding of his-tagged MUC1/CD to PDZ domain [7, 10]: Binding was observed
- Binding of his-tagged MUC1/CD to PDZ domain [8, 10]: Binding was observed
Molecule: MUC1/CD: His-tagged fusion protein of the MUC1 cytoplasmic domain, used as bacterial extract
